Data from patent US20090281028A1.
Read-outs that look alike come from different tables or passages of the source. Ends that are not written are not given here.

Key:
Assay in all cases: cell-based or functional assay
[1] = biological target: human Kv1.3 voltage-gated potassium channel (human) (UniProt P22001)
[2] = biological target: human Kv1.3 channel (human) (UniProt P22001)
[3] = biological target: human Kv1.1 channel (human) (UniProt Q09470)
[4] = biological target: human Kv1.1 voltage-gated potassium channel (human) (UniProt Q09470)
human Kv1.1 voltage-gated potassium channel (human), sequence (Q09470 whole entry): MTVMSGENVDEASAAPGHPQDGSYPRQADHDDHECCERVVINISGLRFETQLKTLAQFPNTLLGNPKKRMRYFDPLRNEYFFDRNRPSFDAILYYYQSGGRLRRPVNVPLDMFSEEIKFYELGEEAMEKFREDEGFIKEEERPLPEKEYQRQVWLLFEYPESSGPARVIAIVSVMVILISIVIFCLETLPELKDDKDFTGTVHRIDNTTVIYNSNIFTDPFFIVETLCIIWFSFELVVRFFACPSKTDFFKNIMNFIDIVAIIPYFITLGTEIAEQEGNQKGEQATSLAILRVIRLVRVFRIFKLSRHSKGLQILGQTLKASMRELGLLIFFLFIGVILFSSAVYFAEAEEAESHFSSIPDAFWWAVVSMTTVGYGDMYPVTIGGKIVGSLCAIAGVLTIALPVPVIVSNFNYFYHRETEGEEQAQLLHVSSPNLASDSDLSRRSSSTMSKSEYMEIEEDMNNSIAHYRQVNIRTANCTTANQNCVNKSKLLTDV

[5] = biological target: human Kv1.3 channel (human) (UniProt P22001); remark: listed apart in the source

human Kv1.3 channel (human), sequence (P22001 whole entry): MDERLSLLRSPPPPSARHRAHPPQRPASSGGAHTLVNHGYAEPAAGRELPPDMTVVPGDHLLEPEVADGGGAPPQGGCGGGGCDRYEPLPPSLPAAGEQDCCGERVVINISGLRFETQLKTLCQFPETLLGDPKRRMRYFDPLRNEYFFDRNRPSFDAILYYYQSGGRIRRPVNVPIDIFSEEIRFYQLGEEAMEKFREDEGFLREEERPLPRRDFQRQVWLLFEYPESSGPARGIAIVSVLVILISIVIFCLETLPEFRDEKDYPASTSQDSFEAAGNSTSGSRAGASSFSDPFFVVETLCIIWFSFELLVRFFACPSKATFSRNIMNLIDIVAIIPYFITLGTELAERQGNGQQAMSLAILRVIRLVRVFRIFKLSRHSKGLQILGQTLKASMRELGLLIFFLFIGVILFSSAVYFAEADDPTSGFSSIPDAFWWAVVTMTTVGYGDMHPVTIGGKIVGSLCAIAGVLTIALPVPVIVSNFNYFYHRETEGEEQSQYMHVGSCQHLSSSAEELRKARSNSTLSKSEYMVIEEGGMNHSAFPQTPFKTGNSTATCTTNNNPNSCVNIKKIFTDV
human Kv1.3 voltage-gated potassium channel (human), sequence (P22001 whole entry): as above
human Kv1.1 channel (human), sequence (Q09470 whole entry): as the sequence (Q09470 whole entry) above

Molecule: OSK1-K16, D20 (peptide)
- WB/IFNg (IC50, nM); human whole blood [1]: 1.32 nM
- WB/IL-2 (IC50, nM); human whole blood [1]: 1.58 nM

Molecule: E. coli-derived Fc-L-OSK1 (Fc fusion)
- Kv1.3 IC50 by WCVC (nM), whole cell patch clamp, HEK293/Kv1.3 cells [2]: 3.2 nM

Molecule: PEG-OSK1 (N-terminally 20 kDa PEGylated synthetic OSK1) (peptide)
- peak IC50 of block of the outward potassium current, whole cell patch clamp [2]: 1.28 nM

Molecule: Synthetic OSK1 (peptide)
- hKv1.1: IC50 [pM], block of current, whole cell patch clamp [3]: 160 pM
- hKv1.3: IC50 [pM], block of current, whole cell patch clamp [2]: 39 pM
- selectivity ratio hKv1.1/hKv1.3 (IC50) [2]: 4 fold

Molecule: Fc-L10-ShK[2-35] (CHO-derived, bivalent dimeric) (Fc fusion)
- IC50 of block of the outward potassium current, whole cell patch clamp [2]: 0.115 nM

Molecule: E. coli-derived Fc-L-ShK[2-35] (Fc fusion)
- Kv1.3 IC50 by IWQ (nM), IonWorks planar patch clamp, CHO/Kv1.3 cells [2]: 2.8 nM
- Kv1.3 IC50 by WCVC (nM), whole cell patch clamp, HEK293/Kv1.3 cells [2]: 1.3 nM

Molecule: 20k PEG-OSK1[Ala29, 1Nal34] (peptide)
- WB/IFNg (IC50, nM); human whole blood [1]: 0.081 nM
- WB/IL-2 (IC50, nM); human whole blood [1]: 0.049 nM

Molecule: Fc-L10-OSK1 (stably expressed in CHO cells) (Fc fusion)
- fold loss of potency (IC50 of Kv1.3 current block) against synthetic OSK1 [2]: 5 fold

Molecule: Fc-L25-ShK[2-35] (CHO-derived, bivalent dimeric) (Fc fusion)
- IC50 of inhibition of human Kv1.3, whole cell patch clamp [2]: 0.15 nM

Molecule: E. coli-derived Fc-L-ShK[1-35] (Fc fusion)
- Kv1.3 IC50 by WCVC (nM), whole cell patch clamp, HEK293/Kv1.3 cells [2]: 1.4 nM

Molecule: E. coli-derived Shk[1-35]-L-Fc (Fc fusion)
- Kv1.3 IC50 by IWQ (nM), IonWorks planar patch clamp, CHO/Kv1.3 cells [2]: 2.4 nM

Molecule: Fc-L5-ShK[2-35] (CHO-derived, bivalent dimeric) (Fc fusion)
- IC50 of block of the outward potassium current, whole cell patch clamp [2]: 0.1 nM

Molecule: GGGGS-Osk1 (peptide)
- WB/IFNg (IC50, nM); human whole blood [1]: 2.2 nM
- WB/IL-2 (IC50, nM); human whole blood [1]: 1.36 nM

Molecule: 20k PEG-ShK (peptide)
- WB/IFNg (IC50, nM); human whole blood [1]: 0.065 nM
- WB/IL-2 (IC50, nM); human whole blood [1]: 0.046 nM

Molecule: OSK1 (wild-type), toxin peptide of Orthochirus scrobiculosus scorpion venom
- Kv1.3 (IC50, pM); whole cell patch clamp ePhys [1]: 39 pM
- Kv1.3 Selectivity (=Kv1.1/Kv.3 IC50) [1]: 5 fold
- Kv1.1 (IC50, pM); whole cell patch clamp ePhys [4]: 202 pM

Molecule: E. coli-derived ShK[2-35]-L-Fc (Fc fusion)
- Kv1.3 IC50 by IWQ (nM), IonWorks planar patch clamp, CHO/Kv1.3 cells [2]: 4.9 nM

Molecule: Fc-L10-OSK1 (Fc fusion)
- hKv1.1: IC50 [pM], block of current, whole cell patch clamp [3]: 41600 pM

Molecule: SCIDTIPKSRCTAFQCKHSMKYRLSFCRKTCGTC (not fully specified; ends and bridges not checked) [synthetic ShK[2-35]]
- IC50 of block of the outward potassium current, whole cell patch clamp [5]: 0.049 nM

Molecule: RSCIDTIPKSRCTAFQCKHSMKYRLSFCRKTCGTC (not fully specified; ends and bridges not checked) [20K PEG-ShK[1-35]]
- peak IC50 of block of the outward potassium current, whole cell patch clamp [5]: 0.169 nM
